Legend:
Assay in all cases: SPR; Biacore T200; […] (0.01 M HEPES, 0.15 M NaCl, 3 mM EDTA, 0.05% surfactant P20, […]
[1] = molecular target: SARS-CoV-2 spike protein RBD, Delta variant, sfGFP fusion (SARS-CoV-2) (UniProt P0DTC2)
[2] = molecular target: SARS-CoV-2 spike protein RBD, Alpha variant, sfGFP fusion (SARS-CoV-2) (UniProt P0DTC2)
[3] = molecular target: SARS-CoV-2 spike protein RBD, Omicron variant, sfGFP fusion (SARS-CoV-2) (UniProt P0DTC2)

Substance | Kd [1] | Kd [2] | Kd [3]
Jacalin (natural protein) | 339 nM | 320 nM | 478 nM
Recombinant Microcystis viridis NIES-102 lectin (rMVL) (from UniProt Q9RHG4 1-114) (natural protein) |  |  | 2730 nM
